{
  "source": "paper PMC7793589",
  "about": "(Science Advances, 2021)",
  "molecules": {"B1": {"name": "recombinant ITIH4 (ITIH4 WT) (natural protein, human, UniProt Q14624 29-930, looked up)", "chain": "EKNGIDIYSLTVDSRVSSRFAHTVVTSRVVNRANTVQEATFQMELPKKAFITNFSMIIDGMTYPGIIKEKAEAQAQYSAAVAKGKSAGLVKATGRNMEQFQVSVSVAPNAKITFELVYEELLKRRLGVYELLLKVRPQQLVKHLQMDIHIFEPQGISFLETESTFMTNQLVDALTTWQNKTKAHIRFKPTLSQQQKSPEQQETVLDGNLIIRYDVDRAISGGSIQIENGYFVHYFAPEGLTTMPKNVVFVIDKSGSMSGRKIQQTREALIKILDDLSPRDQFNLIVFSTEATQWRPSLVPASAENVNKARSFAAGIQALGGTNINDAMLMAVQLLDSSNQEERLPEGSVSLIILLTDGDPTVGETNPRSIQNNVREAVSGRYSLFCLGFGFDVSYAFLEKLALDNGGLARRIHEDSDSALQLQDFYQEVANPLLTAVTFEYPSNAVEEVTQNNFRLLFKGSEMVVAGKLQDRGPDVLTATVSGKLPTQNITFQTESSVAEQEAEFQSPKYIFHNFMERLWAYLTIQQLLEQTVSASDADQQALRNQALNLSLAYSFVTPLTSMVVTKPDDQEQSQVAEKPMEGESRNRNVHSGSTFFKYYLQGAKIPKPEASFSPRRGWNRQAGAAGSRMNFRPGVLSSRQLGLPGPPDVPDHAAYHPFRRLAILPASAPPATSNPDPAVSRVMNMKIEETTMTTQTPAPIQAPSAILPLPGQSVERLCVDPRHRQGPVNLLSDPEQGVEVTGQYEREKAGFSWIEVTFKNPLVWVHASPEHVVVTRNRRSSAYKWKETLFSVMPGLKMTMDKTGLLLLSDPDKVTIGLLFWDGRGEGLRLLLRDTDRFSSHVGGTLGQFYQEVLWGSPAASDDGRRTLRVQGNDHSATRERRLDYQEGPPGVEISCWSVEL"}},
  "key": {"[1]": {"molecular_target": "plasma kallikrein (human)"}, "SAXS": {"molecular_target": "the molecule itself", "assay": "SAXS"}},
  "data": [
    {"molecule": "recombinant ITIH4 (ITIH4 WT) (from UniProt Q14624 29-930) (natural protein)", "values": [
      {"measurement": "IC50 of ITIH4 on cleavage of HMWK by plasma kallikrein in Ca2+/Mg2+, SDS-PAGE", "setting": "[1]", "result": 0.09, "unit": "µM"}
    ]},
    {"molecule": "B1", "values": [
      {"measurement": "stoichiometry N", "setting": "SAXS", "result": 2}
    ]}
  ]
}
